Reference: patent US11932908B2, “Compositions and methods for diagnosis and treatment of epilepsy” (THE REGENTS OF THE UNIVERSITY OF CALIFORNIA, priority 2004, dated 2024)
“Also recorded” adds a separate entry of the source.

What was measured:
[1] = system: mouse hippocampal primary culture neurons; conditions: 24, 36 and 48 hours after transfection; mutants compared to wild-type EFHC1
Description: Mouse hippocampal neurons primary culture. Hippocampal neurons were isolated from embryonic day 16 mice and plated at 1-2×10^5 cells per well in 24 well plate containing glass coverslips coated with poly-1-lysine and grown in serum-free NEUROBASAL™ media supplemented with B27, 0.5 mM L-glutamine (Invitrogen).
Transfection and immunostaining of mouse hippocampal neurons. […] Cultures were fixed with 4% paraformaldehyde in PBS 16 and 48 hours after transfection, permeabilized with 0.3% Triton X-100, blocked in 3% normal goat serum in PBS, and treated with mouse monoclonal anti-MAP-2 antibody (1:500; Sigma) and Alexa fluor 594 goat anti-mouse IgG antibody (1:1000; Molecular Probes).
TUNEL assay. […] Forty-eight hours after transfection, neuronal apoptosis was detected using DeadEndTM Fluorometric TUNEL System (Promega). Nuclei were visualized with Hoescht 33342 (Molecular Probes). These cells were also stained with anti-Myc antibody (1:200; Cell Signaling) and Alexa fluor 594 goat anti-rabbit IgG antibody (1:1000). All experiments were carried out in duplicate wells and at least repeated three times. Neuron cells were observed on a confocal microscope (OLYMPUS FLUOVIEW) following 48 hours post transfection.
Cell death analyses with EFHC1 mutants. […] Surviving cell numbers were scored by counting GFP fluorescent-positive cells that attached to dishes. At each counting, detached cells (dead cells) were carefully removed by changing culture medium. Morphologies of cells (cell shape, length and number of neurites, shrinkage, etc.) were not considered for the counting. Surviving cell numbers were scored at 24, 36, and 48 hours after transfection. Analyses were repeated twice by using two independently prepared expression construct DNAs. In total, neurons in seven wells of 24 well plates were counted for each transfection and time point. Experiments were performed in a blinded fashion.

PQ type VDCC (Cav2.1) = molecular target: T1, PQ type VDCC (Cav2.1) (Oryctolagus cuniculus, UniProt P27884); experiment: Patch-clamp analyses of HEK cell line with P/Q type VDCCs and wild type EFHC1 or mutant constructs; type: cell-based
T1 construct: expressed in transfected cells; host or cells: HEK cell line
T1 sequence (P27884 whole entry): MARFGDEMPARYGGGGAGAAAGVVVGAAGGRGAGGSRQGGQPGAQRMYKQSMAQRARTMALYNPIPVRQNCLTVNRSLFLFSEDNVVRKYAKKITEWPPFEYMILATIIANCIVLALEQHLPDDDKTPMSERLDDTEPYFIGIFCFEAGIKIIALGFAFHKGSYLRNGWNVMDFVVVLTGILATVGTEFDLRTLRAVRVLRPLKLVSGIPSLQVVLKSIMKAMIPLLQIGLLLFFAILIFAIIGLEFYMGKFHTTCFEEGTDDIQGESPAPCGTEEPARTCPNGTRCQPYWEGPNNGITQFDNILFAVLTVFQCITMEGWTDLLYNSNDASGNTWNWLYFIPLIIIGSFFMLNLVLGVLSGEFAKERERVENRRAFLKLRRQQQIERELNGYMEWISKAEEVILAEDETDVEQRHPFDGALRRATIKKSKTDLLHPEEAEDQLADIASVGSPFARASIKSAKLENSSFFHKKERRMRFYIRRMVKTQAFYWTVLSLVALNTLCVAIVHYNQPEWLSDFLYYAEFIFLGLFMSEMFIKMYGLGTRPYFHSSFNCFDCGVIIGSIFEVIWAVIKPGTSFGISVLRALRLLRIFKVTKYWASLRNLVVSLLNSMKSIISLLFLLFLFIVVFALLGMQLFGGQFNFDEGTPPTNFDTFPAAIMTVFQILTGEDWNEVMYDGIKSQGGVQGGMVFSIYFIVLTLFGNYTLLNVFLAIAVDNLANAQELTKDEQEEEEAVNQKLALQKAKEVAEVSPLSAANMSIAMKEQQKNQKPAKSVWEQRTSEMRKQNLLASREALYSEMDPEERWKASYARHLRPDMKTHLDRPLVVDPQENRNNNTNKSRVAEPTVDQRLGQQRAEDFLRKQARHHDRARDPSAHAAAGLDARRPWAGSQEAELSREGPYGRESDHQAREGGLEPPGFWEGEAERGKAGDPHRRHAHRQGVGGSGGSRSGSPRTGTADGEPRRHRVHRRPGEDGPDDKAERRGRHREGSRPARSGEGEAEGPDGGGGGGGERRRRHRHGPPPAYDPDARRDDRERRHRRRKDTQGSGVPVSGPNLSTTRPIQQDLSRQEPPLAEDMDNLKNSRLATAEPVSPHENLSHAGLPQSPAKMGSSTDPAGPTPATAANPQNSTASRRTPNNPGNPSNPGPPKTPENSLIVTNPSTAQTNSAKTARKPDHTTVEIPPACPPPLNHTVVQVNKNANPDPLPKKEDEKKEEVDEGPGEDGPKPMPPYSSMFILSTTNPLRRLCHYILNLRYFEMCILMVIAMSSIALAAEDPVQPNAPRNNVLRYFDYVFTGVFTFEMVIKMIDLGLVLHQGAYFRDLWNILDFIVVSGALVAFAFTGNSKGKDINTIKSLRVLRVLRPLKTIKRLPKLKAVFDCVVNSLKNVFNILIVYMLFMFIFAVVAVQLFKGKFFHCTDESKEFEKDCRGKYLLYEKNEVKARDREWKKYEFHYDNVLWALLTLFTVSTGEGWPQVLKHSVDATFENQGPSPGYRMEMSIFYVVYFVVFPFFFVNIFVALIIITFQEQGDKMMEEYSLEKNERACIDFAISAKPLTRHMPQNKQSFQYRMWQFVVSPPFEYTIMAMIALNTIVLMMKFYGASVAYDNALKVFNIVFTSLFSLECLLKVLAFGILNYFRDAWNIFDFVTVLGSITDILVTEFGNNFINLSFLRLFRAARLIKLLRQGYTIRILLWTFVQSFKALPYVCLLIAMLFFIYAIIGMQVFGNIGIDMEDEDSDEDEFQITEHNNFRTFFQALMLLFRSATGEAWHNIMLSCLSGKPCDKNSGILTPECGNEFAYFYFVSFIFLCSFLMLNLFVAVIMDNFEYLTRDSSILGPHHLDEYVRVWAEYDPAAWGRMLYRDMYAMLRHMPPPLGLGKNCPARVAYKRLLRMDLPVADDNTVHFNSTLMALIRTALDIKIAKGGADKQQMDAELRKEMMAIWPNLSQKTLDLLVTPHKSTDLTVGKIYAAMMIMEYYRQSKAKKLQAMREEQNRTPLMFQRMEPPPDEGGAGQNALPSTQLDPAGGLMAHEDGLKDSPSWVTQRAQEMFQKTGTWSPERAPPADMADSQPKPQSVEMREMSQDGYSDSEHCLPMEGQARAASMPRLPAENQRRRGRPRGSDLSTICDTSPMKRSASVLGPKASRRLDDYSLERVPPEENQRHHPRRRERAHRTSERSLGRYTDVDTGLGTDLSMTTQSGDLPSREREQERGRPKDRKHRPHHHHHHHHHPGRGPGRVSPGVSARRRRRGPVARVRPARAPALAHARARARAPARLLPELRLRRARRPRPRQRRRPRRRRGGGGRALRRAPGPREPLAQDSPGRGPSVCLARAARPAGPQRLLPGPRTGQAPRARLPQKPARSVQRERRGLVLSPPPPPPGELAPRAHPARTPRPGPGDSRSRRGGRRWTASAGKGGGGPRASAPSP
T1 sequence (P13806 27-1106 partner): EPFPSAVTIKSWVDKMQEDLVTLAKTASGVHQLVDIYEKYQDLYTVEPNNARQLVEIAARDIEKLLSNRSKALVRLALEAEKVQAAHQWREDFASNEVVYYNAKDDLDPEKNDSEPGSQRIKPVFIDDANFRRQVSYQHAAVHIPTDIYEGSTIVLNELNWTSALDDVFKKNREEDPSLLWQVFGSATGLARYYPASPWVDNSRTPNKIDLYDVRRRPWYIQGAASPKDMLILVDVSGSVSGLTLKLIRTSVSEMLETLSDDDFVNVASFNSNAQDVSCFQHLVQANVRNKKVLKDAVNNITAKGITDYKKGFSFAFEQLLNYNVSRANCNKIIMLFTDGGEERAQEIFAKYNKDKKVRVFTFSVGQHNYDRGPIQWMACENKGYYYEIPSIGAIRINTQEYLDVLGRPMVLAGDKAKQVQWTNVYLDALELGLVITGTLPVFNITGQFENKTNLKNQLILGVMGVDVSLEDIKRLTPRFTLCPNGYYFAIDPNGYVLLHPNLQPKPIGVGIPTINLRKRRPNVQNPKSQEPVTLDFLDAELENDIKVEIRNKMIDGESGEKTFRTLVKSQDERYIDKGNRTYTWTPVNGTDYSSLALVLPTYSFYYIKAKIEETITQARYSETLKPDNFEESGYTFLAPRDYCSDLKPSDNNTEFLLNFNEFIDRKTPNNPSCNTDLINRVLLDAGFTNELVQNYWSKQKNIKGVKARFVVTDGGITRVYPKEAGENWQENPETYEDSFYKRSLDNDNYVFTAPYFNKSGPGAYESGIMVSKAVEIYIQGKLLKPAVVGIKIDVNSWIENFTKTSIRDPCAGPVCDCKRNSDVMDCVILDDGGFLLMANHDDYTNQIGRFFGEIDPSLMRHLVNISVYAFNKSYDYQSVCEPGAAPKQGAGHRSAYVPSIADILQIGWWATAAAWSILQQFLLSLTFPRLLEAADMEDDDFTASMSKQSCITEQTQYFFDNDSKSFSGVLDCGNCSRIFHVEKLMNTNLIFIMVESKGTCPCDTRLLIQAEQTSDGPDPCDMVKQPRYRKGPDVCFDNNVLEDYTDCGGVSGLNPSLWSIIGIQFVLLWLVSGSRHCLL
T1 sequence (P19517 whole entry partner): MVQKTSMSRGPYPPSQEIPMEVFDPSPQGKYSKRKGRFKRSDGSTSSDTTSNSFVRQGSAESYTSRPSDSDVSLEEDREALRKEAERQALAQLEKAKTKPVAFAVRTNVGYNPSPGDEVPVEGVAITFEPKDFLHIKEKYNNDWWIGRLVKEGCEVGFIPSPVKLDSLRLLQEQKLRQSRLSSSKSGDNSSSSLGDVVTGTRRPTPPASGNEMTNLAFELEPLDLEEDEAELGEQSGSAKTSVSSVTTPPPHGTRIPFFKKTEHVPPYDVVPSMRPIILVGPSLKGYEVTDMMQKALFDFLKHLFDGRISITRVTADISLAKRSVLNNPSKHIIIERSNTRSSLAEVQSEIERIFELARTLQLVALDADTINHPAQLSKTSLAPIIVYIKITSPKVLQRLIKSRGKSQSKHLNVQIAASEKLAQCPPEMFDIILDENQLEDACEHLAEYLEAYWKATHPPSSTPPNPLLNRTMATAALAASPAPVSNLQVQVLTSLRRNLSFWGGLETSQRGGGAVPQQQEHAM

B1: P77T/R221H: EFHC1 protein with the double mutation P77T and R221H (protein)
chain: MVSNPVHGLPFLPGTSFKDSTKTAFHRSQTLSYRNGYAIVRRPTVGIGGDRLQFNQLSQAELDELASKAPVLTYGQTKQAPPADFIPAHVAFDKKVLKFDAYFQEDVPMSTEEQYRIRQVNIYYYLEDDSMSVIEPVVENSGILQGKLIKRQRLAKNDRGDHYHWKDLNRGINITIYGKTFRVVDCDQFTQVFLESQGIELNPPEKMALDPYTELRKQPLHKYVTPSDFDQLKQFLTFDKQVLRFYAIWDDTDSMYGECRTYIIHYYLMDDTVEIREVHERNDGRDPFPLLMNRQRVPKVLVENAKNFPQCVLEISDQEVLEWYTAKDFIVGKSLTILGRTFFIYDCDPFTRRYYKEKFGITDLPRIDVSKREPPPVKQELPPYNGFGLVEDSAQNCFTLIPKAPKKDVIKMLVNDNKVLRYLAVLESPIPEDKDRRFVFSYFLATDMISIFEPPVRNSGIIGGKYLGRTKVVKPYSTVDNPVYYGPSDFFIGAVIEVFGHRFIILDTDEYVLKYMESNAAQYSPEALASIQNHVRKREAPAPEAESKQTEKDPGVQELEALIDTIQKQLKDHSCKDNIREAFQIYDKEASGYVDRDMFFKICESLNVPVDDSLVKELIRMCSHGEGKINYYNFVRAFSN
cell-death effect (GFP-positive surviving cell numbers) [1]: significantly reduced; also recorded: significantly reversed

B2: P77T: EFHC1 protein with JME missense mutation P77T (Pro77Thr) (protein)
chain: MVSNPVHGLPFLPGTSFKDSTKTAFHRSQTLSYRNGYAIVRRPTVGIGGDRLQFNQLSQAELDELASKAPVLTYGQTKQAPPADFIPAHVAFDKKVLKFDAYFQEDVPMSTEEQYRIRQVNIYYYLEDDSMSVIEPVVENSGILQGKLIKRQRLAKNDRGDHYHWKDLNRGINITIYGKTFRVVDCDQFTQVFLESQGIELNPPEKMALDPYTELRKQPLRKYVTPSDFDQLKQFLTFDKQVLRFYAIWDDTDSMYGECRTYIIHYYLMDDTVEIREVHERNDGRDPFPLLMNRQRVPKVLVENAKNFPQCVLEISDQEVLEWYTAKDFIVGKSLTILGRTFFIYDCDPFTRRYYKEKFGITDLPRIDVSKREPPPVKQELPPYNGFGLVEDSAQNCFTLIPKAPKKDVIKMLVNDNKVLRYLAVLESPIPEDKDRRFVFSYFLATDMISIFEPPVRNSGIIGGKYLGRTKVVKPYSTVDNPVYYGPSDFFIGAVIEVFGHRFIILDTDEYVLKYMESNAAQYSPEALASIQNHVRKREAPAPEAESKQTEKDPGVQELEALIDTIQKQLKDHSCKDNIREAFQIYDKEASGYVDRDMFFKICESLNVPVDDSLVKELIRMCSHGEGKINYYNFVRAFSN
Ca2+ current density of P/Q-type VDCC (Cav2.1) (PQ type VDCC (Cav2.1); cells co-transfected with P/Q-type VDCC and EFHC1 constructs): moderately increased | Activation V0.5 (mV) (PQ type VDCC (Cav2.1); half-maximal voltage of activation, mean ± SEM): 23.0 ± 3.2 mV | Inactivation V0.5 (mV) (PQ type VDCC (Cav2.1); half-maximal voltage of inactivation, mean ± SEM): −15.8 ± 1.4 mV | inactivation speed of P/Q type VDCC (decelerating effect on calcium inactivation) (PQ type VDCC (Cav2.1); patch-clamp): abolished the decelerating effect | Activation k (mV) (PQ type VDCC (Cav2.1); slope factor, mean ± SEM): 8.87 ± 1.67 mV | Inactivation K (mV) (PQ type VDCC (Cav2.1); slope factor, mean ± SEM): 6.59 ± 0.44 mV | cell-death effect (GFP-positive surviving cell numbers) [1]: significantly reversed

B3: 1619L: EFHC1 protein with coding polymorphism I619L (protein, UniProt Q5JVL4 1-640, looked up, variant I619L)
EF-hand domain-containing …: MVSNPVHGLPFLPGTSFKDSTKTAFHRSQTLSYRNGYAIVRRPTVGIGGDRLQFNQLSQAELDELASKAPVLTYGQPKQAPPADFIPAHVAFDKKVLKFDAYFQEDVPMSTEEQYRIRQVNIYYYLEDDSMSVIEPVVENSGILQGKLIKRQRLAKNDRGDHYHWKDLNRGINITIYGKTFRVVDCDQFTQVFLESQGIELNPPEKMALDPYTELRKQPLRKYVTPSDFDQLKQFLTFDKQVLRFYAIWDDTDSMYGECRTYIIHYYLMDDTVEIREVHERNDGRDPFPLLMNRQRVPKVLVENAKNFPQCVLEISDQEVLEWYTAKDFIVGKSLTILGRTFFIYDCDPFTRRYYKEKFGITDLPRIDVSKREPPPVKQELPPYNGFGLVEDSAQNCFALIPKAPKKDVIKMLVNDNKVLRYLAVLESPIPEDKDRRFVFSYFLATDMISIFEPPVRNSGIIGGKYLGRTKVVKPYSTVDNPVYYGPSDFFIGAVIEVFGHRFIILDTDEYVLKYMESNAAQYSPEALASIQNHVRKREAPAPEAESKQTEKDPGVQELEALIDTIQKQLKDHSCKDNIREAFQIYDKEASGYVDRDMFFKICESLNVPVDDSLVKELLRMCSHGEGKINYYNFVRAFSN
cell-death effect (GFP-positive surviving cell numbers) [1]: largely maintained

B4: R182H: EFHC1 protein with coding polymorphism R182H (Arg182His) (protein)
chain: MVSNPVHGLPFLPGTSFKDSTKTAFHRSQTLSYRNGYAIVRRPTVGIGGDRLQFNQLSQAELDELASKAPVLTYGQPKQAPPADFIPAHVAFDKKVLKFDAYFQEDVPMSTEEQYRIRQVNIYYYLEDDSMSVIEPVVENSGILQGKLIKRQRLAKNDRGDHYHWKDLNRGINITIYGKTFHVVDCDQFTQVFLESQGIELNPPEKMALDPYTELRKQPLRKYVTPSDFDQLKQFLTFDKQVLRFYAIWDDTDSMYGECRTYIIHYYLMDDTVEIREVHERNDGRDPFPLLMNRQRVPKVLVENAKNFPQCVLEISDQEVLEWYTAKDFIVGKSLTILGRTFFIYDCDPFTRRYYKEKFGITDLPRIDVSKREPPPVKQELPPYNGFGLVEDSAQNCFTLIPKAPKKDVIKMLVNDNKVLRYLAVLESPIPEDKDRRFVFSYFLATDMISIFEPPVRNSGIIGGKYLGRTKVVKPYSTVDNPVYYGPSDFFIGAVIEVFGHRFIILDTDEYVLKYMESNAAQYSPEALASIQNHVRKREAPAPEAESKQTEKDPGVQELEALIDTIQKQLKDHSCKDNIREAFQIYDKEASGYVDRDMFFKICESLNVPVDDSLVKELIRMCSHGEGKINYYNFVRAFSN
cell-death effect (GFP-positive surviving cell numbers) [1]: largely maintained

B5: R159W: EFHC1 protein with coding polymorphism R159W (Arg159Trp) (protein)
chain: MVSNPVHGLPFLPGTSFKDSTKTAFHRSQTLSYRNGYAIVRRPTVGIGGDRLQFNQLSQAELDELASKAPVLTYGQPKQAPPADFIPAHVAFDKKVLKFDAYFQEDVPMSTEEQYRIRQVNIYYYLEDDSMSVIEPVVENSGILQGKLIKRQRLAKNDWGDHYHWKDLNRGINITIYGKTFRVVDCDQFTQVFLESQGIELNPPEKMALDPYTELRKQPLRKYVTPSDFDQLKQFLTFDKQVLRFYAIWDDTDSMYGECRTYIIHYYLMDDTVEIREVHERNDGRDPFPLLMNRQRVPKVLVENAKNFPQCVLEISDQEVLEWYTAKDFIVGKSLTILGRTFFIYDCDPFTRRYYKEKFGITDLPRIDVSKREPPPVKQELPPYNGFGLVEDSAQNCFTLIPKAPKKDVIKMLVNDNKVLRYLAVLESPIPEDKDRRFVFSYFLATDMISIFEPPVRNSGIIGGKYLGRTKVVKPYSTVDNPVYYGPSDFFIGAVIEVFGHRFIILDTDEYVLKYMESNAAQYSPEALASIQNHVRKREAPAPEAESKQTEKDPGVQELEALIDTIQKQLKDHSCKDNIREAFQIYDKEASGYVDRDMFFKICESLNVPVDDSLVKELIRMCSHGEGKINYYNFVRAFSN
cell-death effect (GFP-positive surviving cell numbers) [1]: largely maintained
